Laboratory results published in the supplement of paper PMC10126150.
± gives the standard deviation of the averaged measurements.

Test system: ATP
Experiment: switch fluorescence ratio, 500 uM ATP over buffer (Cy3 cluster intensity, sum of 5 cycles each) (fold (ratio)); higher = stronger signal-on switching upon ATP binding; sequences stand for … in TCGTCGGCAGCGTCAGATGTGTATAAGAGACAGTTTTTTTTTTTTTTTTTTTTTTTTT…TC
Details: aptamer strand: ATP DNA aptamer (quencher-CACCTGGGGGAGTATTGCGGAGGAAGG + anchor), 100 nM annealed; ATP concentration: 500 uM
How it was run: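 Exposure to 500 uM ATP lasted 15 min at 22 °C before imaging, and a selection-buffer image was taken beforehand, for Cy3-labelled switching-strand clusters on a modified Illumina MiSeq flow-cell annealed to 100 nM quencher-labelled ATP aptamer. Five buffer/ATP cycles were run with NaOH stripping and re-annealing between them. The fluorescence ratio per cluster is summed target-cycle over summed buffer-cycle Cy3 intensity, averaged per switch-domain sequence. Clusters outside 100-1000 RFU were excluded.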

In the case of TATCATGAG, the switch fluorescence ratio is reported as 1 ± 0.033.

With CAAACTGGCA the switch fluorescence ratio was 1.05 ± 0.045.

Sequence CGTCGTGGAG has a switch fluorescence ratio of 1.01 ± 0.036.

AAATAGGGGG gave a switch fluorescence ratio of 0.967 ± 0.026.

Work on ATTAGCGCCC yielded a switch fluorescence ratio of 1.01 ± 0.032.

Sequence AACGTTTGCG has a switch fluorescence ratio of 0.986 ± 0.017.

Sequence TAATTAGCGG has a switch fluorescence ratio of 1.01 ± 0.018.

ATGCGAGCAA gave a switch fluorescence ratio of 1.11 ± 0.019.

Work on TGGGGGTGTT yielded a switch fluorescence ratio of 1 ± 0.032.

TTACTCGTCT showed a switch fluorescence ratio of 1.08 ± 0.056.

With TTTTAAGGGG the switch fluorescence ratio was 1.02 ± 0.046.

With ATGGGGCTGT the switch fluorescence ratio was 0.979 ± 0.034.

Work on TGCTGAATCT yielded a switch fluorescence ratio of 0.996 ± 0.046.

GGTACCCTGG showed a switch fluorescence ratio of 1.03 ± 0.014.

With CGCTCCGGGC the switch fluorescence ratio was 1.23 ± 0.058.

With TGTCATTGGA the switch fluorescence ratio was 0.989 ± 0.017.

For TTTGGCCGGT, the switch fluorescence ratio was 1.04 ± 0.056.

With TTCTGCTCGC the switch fluorescence ratio was 1.08 ± 0.058.

Work on TCGGGAGTAC yielded a switch fluorescence ratio of 1.01 ± 0.015.

For TTCATTTCGG, the switch fluorescence ratio was 1.001 ± 0.0025.

TCTGGGGGGC showed a switch fluorescence ratio of 0.996 ± 0.075.

With AATGTTTGTC the switch fluorescence ratio was 1.03 ± 0.1.

CTGGCACTGG showed a switch fluorescence ratio of 1.016 ± 0.0056.

Sequence GAAATTAGGA has a switch fluorescence ratio of 1.01 ± 0.028.

CCCATACTGA gave a switch fluorescence ratio of 1.11 ± 0.036.

ATTCAGACCT was tested, and the switch fluorescence ratio was 1.39 ± 0.019.

Sequence TCCATGTTGA has a switch fluorescence ratio of 1.03 ± 0.019.

In the case of CGCTGGGTAC, the switch fluorescence ratio is reported as 2.24 ± 0.28.

For ACAGAAGGGA, the switch fluorescence ratio was 1.03 ± 0.068.

Sequence GTGTCAACGT has a switch fluorescence ratio of 0.978 ± 0.017.

With TTATTAAATG the switch fluorescence ratio was 0.998 ± 0.013.

For GCTTTTCAGC, the switch fluorescence ratio was 1.01 ± 0.038.

For CTCGGGTGGT, the switch fluorescence ratio was 0.997 ± 0.061.

Work on CAGCGTGGCA yielded a switch fluorescence ratio of 1 ± 0.021.

Work on TTCTATATGT yielded a switch fluorescence ratio of 0.977 ± 0.027.

Work on CGGTTCTGTA yielded a switch fluorescence ratio of 1.01 ± 0.027.

Work on CGTGCAAAGA yielded a switch fluorescence ratio of 1.77 ± 1.1.

TGAGAGGGGC showed a switch fluorescence ratio of 0.973 ± 0.058.

Sequence TTAGGGAAGT has a switch fluorescence ratio of 0.991 ± 0.031.

GGGTCGTGCT showed a switch fluorescence ratio of 1.03 ± 0.022.

With TGCAGGTAGG the switch fluorescence ratio was 1.04 ± 0.036.

ACTTTGAA showed a switch fluorescence ratio of 1.01 ± 0.037.

TATCCTTAGG was tested, and the switch fluorescence ratio was 1.01 ± 0.059.

Sequence CGCCCTTGGC has a switch fluorescence ratio of 1.07 ± 0.036.

CAGCGGGGGT was tested, and the switch fluorescence ratio was 1.03 ± 0.05.

For GGGCTATTAG, the switch fluorescence ratio was 0.98 ± 0.013.

AATTTTTGTC was tested, and the switch fluorescence ratio was 1.01 ± 0.023.

TGGGATAAGT gave a switch fluorescence ratio of 1.01 ± 0.018.

For GTTACAAGAG, the switch fluorescence ratio was 0.9955 ± 0.0077.

AAGTGCCGAG gave a switch fluorescence ratio of 0.989 ± 0.027.

In the case of CTTGGGGATT, the switch fluorescence ratio is reported as 0.99 ± 0.044.

Work on AAGGACCGGC yielded a switch fluorescence ratio of 0.991 ± 0.057.

ACGGCATCAT was tested, and the switch fluorescence ratio was 1.076 ± 0.0017.

Sequence AAGGAGGGCA has a switch fluorescence ratio of 0.984 ± 0.016.

GGTTTTTGCT showed a switch fluorescence ratio of 0.9584 ± 0.0068.

TTATGATTCA was tested, and the switch fluorescence ratio was 0.973 ± 0.022.

Work on GGTTGCGTCT yielded a switch fluorescence ratio of 0.9613 ± 0.003.

In the case of CTTCGTGACA, the switch fluorescence ratio is reported as 1.042 ± 0.0027.

In the case of TTTTAGGGGA, the switch fluorescence ratio is reported as 1.01 ± 0.025.

Sequence TATGGGATTG has a switch fluorescence ratio of 0.998 ± 0.021.

With AGAAGAAGGG the switch fluorescence ratio was 1.03 ± 0.017.

With AACATTTTTT the switch fluorescence ratio was 0.99 ± 0.019.

With AAGAAGATTT the switch fluorescence ratio was 1 ± 0.012.

TTTAATCAAG gave a switch fluorescence ratio of 0.951 ± 0.021.

In the case of CGGGTGTATC, the switch fluorescence ratio is reported as 1.03 ± 0.046.

TAGCAACGCA showed a switch fluorescence ratio of 1.03 ± 0.015.

Work on GTAGTATTGG yielded a switch fluorescence ratio of 0.982 ± 0.028.

GCTACCTTTG gave a switch fluorescence ratio of 1.01 ± 0.014.

Sequence CACGGCCCAA has a switch fluorescence ratio of 0.9224 ± 0.0023.

CGTTAATACT gave a switch fluorescence ratio of 2.98 ± 0.045.

Sequence TCCGGGTATC has a switch fluorescence ratio of 1.33 ± 0.04.

For TTTTTGCCGG, the switch fluorescence ratio was 1.01 ± 0.014.

Sequence GTAAATTTGC has a switch fluorescence ratio of 1.01 ± 0.013.

TTTGCTCACG was tested, and the switch fluorescence ratio was 1.01 ± 0.029.

AAGCTTTCGG showed a switch fluorescence ratio of 1.03 ± 0.016.

Work on TGGGGGACGT yielded a switch fluorescence ratio of 0.999 ± 0.045.

Work on CGGGGGTAAG yielded a switch fluorescence ratio of 0.991 ± 0.027.

With TTTTGATGCT the switch fluorescence ratio was 0.998 ± 0.057.

TTTAGCGTGG showed a switch fluorescence ratio of 1.05 ± 0.05.

TTTGCATGTA was tested, and the switch fluorescence ratio was 1.02 ± 0.027.

Sequence GTATAAGGGT has a switch fluorescence ratio of 1.01 ± 0.018.

Sequence ACGCGCGGAA has a switch fluorescence ratio of 1.008 ± 0.003.

In the case of CTGTTATTTT, the switch fluorescence ratio is reported as 0.974 ± 0.03.

For ACCGATACCC, the switch fluorescence ratio was 1.31 ± 0.022.

With TGTGATGGGC the switch fluorescence ratio was 0.989 ± 0.026.

With GGTTTTCTCG the switch fluorescence ratio was 1.03 ± 0.023.

TCCCAAACAT gave a switch fluorescence ratio of 1.06 ± 0.009.

In the case of CGGCAATGGT, the switch fluorescence ratio is reported as 1.87 ± 1.1.

GATTATCAGA was tested, and the switch fluorescence ratio was 0.988 ± 0.027.

In the case of GTAGTTCGCC, the switch fluorescence ratio is reported as 1.02 ± 0.023.

Sequence TCCCGGGTAT has a switch fluorescence ratio of 0.9787 ± 0.0073.

TTTTAATGGT was tested, and the switch fluorescence ratio was 1.02 ± 0.03.

Work on GACGTATTGC yielded a switch fluorescence ratio of 1.27 ± 0.061.

Sequence TTCGTTAAAG has a switch fluorescence ratio of 0.9612 ± 0.002.

For TAGGGGGTAT, the switch fluorescence ratio was 1.02 ± 0.019.

TAAAATTATA gave a switch fluorescence ratio of 1.02 ± 0.021.

AGAGACGGCA showed a switch fluorescence ratio of 1.01 ± 0.032.

TACCTGCGAA showed a switch fluorescence ratio of 2.07 ± 1.3.

Sequence AATTCGGATG has a switch fluorescence ratio of 1.02 ± 0.034.

In the case of GGAAAGGGGG, the switch fluorescence ratio is reported as 1.01 ± 0.064.

Sequence GCAATGATGT has a switch fluorescence ratio of 1.06 ± 0.03.

GATGAATTAG was tested, and the switch fluorescence ratio was 1.005 ± 0.0082.

Sequence AAGGCGAGCT has a switch fluorescence ratio of 0.992 ± 0.01.

GGTGGGAGGC showed a switch fluorescence ratio of 0.999 ± 0.059.

Work on CGTGACTAAA yielded a switch fluorescence ratio of 0.9893 ± 0.0079.

CGGGATGTGC was tested, and the switch fluorescence ratio was 0.99328 ± 6e-06.

TAAGTGGAC showed a switch fluorescence ratio of 1.039 ± 0.0089.

Work on ATATTGAGAT yielded a switch fluorescence ratio of 0.998 ± 0.037.

CGTTGGCAGC showed a switch fluorescence ratio of 1.03 ± 0.028.

CGGGAATTTC was tested, and the switch fluorescence ratio was 1.04 ± 0.027.

GATGACACGA showed a switch fluorescence ratio of 1.033 ± 0.01.

CTAGTAAGCG was tested, and the switch fluorescence ratio was 0.998 ± 0.048.

Sequence GGATTATCGG has a switch fluorescence ratio of 0.976 ± 0.023.

For TTTTCGTCTC, the switch fluorescence ratio was 1.02 ± 0.019.

GGGATCGTAT showed a switch fluorescence ratio of 0.9856 ± 0.0054.

GAACTTCGGT was tested, and the switch fluorescence ratio was 0.946 ± 0.013.

With GCTATTGGCA the switch fluorescence ratio was 1.014 ± 0.01.

In the case of TTCTAAGGTA, the switch fluorescence ratio is reported as 0.993 ± 0.021.

TATGTTCCAA was tested, and the switch fluorescence ratio was 1.01 ± 0.03.

ATATTCCACA gave a switch fluorescence ratio of 0.9984 ± 0.0093.

AAGTTGGGTA gave a switch fluorescence ratio of 0.978 ± 0.024.

With GTGAAAAAGA the switch fluorescence ratio was 1.005 ± 0.0075.

In the case of GGGGTGGAAA, the switch fluorescence ratio is reported as 0.979 ± 0.018.

Work on GGGGTAGTAG yielded a switch fluorescence ratio of 0.979 ± 0.013.

Sequence GTTGCAATTT has a switch fluorescence ratio of 1.16 ± 0.13.

With GGAGATAGGG the switch fluorescence ratio was 1.03 ± 0.017.

TTTTCCCCTC gave a switch fluorescence ratio of 1.64 ± 1.

For GTGGCTATGG, the switch fluorescence ratio was 0.96188 ± 0.00027.

For ATTACGGGGT, the switch fluorescence ratio was 1.01 ± 0.044.

TCTTGCTCGT was tested, and the switch fluorescence ratio was 1.02 ± 0.0014.

For TAAGAAAGGG, the switch fluorescence ratio was 0.9572 ± 0.0095.

In the case of GCCAACCACT, the switch fluorescence ratio is reported as 1.03 ± 0.025.

AGGCTCTAAG gave a switch fluorescence ratio of 1.01 ± 0.011.

GTCATTTTTG gave a switch fluorescence ratio of 1.02 ± 0.025.

Work on GACTAGTGAC yielded a switch fluorescence ratio of 1.01 ± 0.021.

CGTTGTTTCT showed a switch fluorescence ratio of 0.967 ± 0.024.

ATGTCGTGGG gave a switch fluorescence ratio of 1.01 ± 0.037.

In the case of TAAGTCATTG, the switch fluorescence ratio is reported as 0.985 ± 0.049.

GCCCGTTTCG showed a switch fluorescence ratio of 0.9989 ± 0.0082.

ATTCGGGGG showed a switch fluorescence ratio of 0.927 ± 0.064.

In the case of GGTTTTATTT, the switch fluorescence ratio is reported as 0.984 ± 0.068.

Sequence TCAAACCGGT has a switch fluorescence ratio of 0.983 ± 0.043.

TTGTGGGTTA showed a switch fluorescence ratio of 0.96 ± 0.012.

Sequence CATCGTAAAT has a switch fluorescence ratio of 1.06 ± 0.016.

TGCCGGCGCT gave a switch fluorescence ratio of 0.989 ± 0.038.

GGAATAGGAG gave a switch fluorescence ratio of 1.037 ± 0.0095.

In the case of GCTATGGAGC, the switch fluorescence ratio is reported as 1.06 ± 0.079.

Sequence TGGGAAAAGA has a switch fluorescence ratio of 0.983 ± 0.017.

Work on TAGATTCTGA yielded a switch fluorescence ratio of 1.01 ± 0.032.

TCTTTGTTGA showed a switch fluorescence ratio of 0.995 ± 0.032.

TTGCGTGTGG gave a switch fluorescence ratio of 1.048 ± 0.0046.

In the case of TACGGGCGTC, the switch fluorescence ratio is reported as 1 ± 0.028.

Sequence GACCCGCTAA has a switch fluorescence ratio of 4.18 ± 0.3.

TTGGGCGAGC gave a switch fluorescence ratio of 0.9736 ± 0.0045.

ATTTAGGTCA gave a switch fluorescence ratio of 0.983 ± 0.011.

TTGGGTCGGA gave a switch fluorescence ratio of 0.992 ± 0.029.

With CTAGATGTTG the switch fluorescence ratio was 0.977 ± 0.0027.
